Test results taken from patent US20200407440A1, “AMATOXIN ANTIBODY-DRUG CONJUGATES AND USES THEREOF” (Magenta Therapeutics, Inc., priority 2019, published 2020).

Legend:
[1] = target: human CD2 (human) (UniProt P06729); test: flow cytometry of primary human T cells at day 5; competition with the staining anti-CD2 clone RPA-2.10 [left panel]
[2] = target: human CD2 (human) (UniProt P06729); test: cell-based or functional assay

UniProt P06729, sequence (P06729 25-351 limits assumed): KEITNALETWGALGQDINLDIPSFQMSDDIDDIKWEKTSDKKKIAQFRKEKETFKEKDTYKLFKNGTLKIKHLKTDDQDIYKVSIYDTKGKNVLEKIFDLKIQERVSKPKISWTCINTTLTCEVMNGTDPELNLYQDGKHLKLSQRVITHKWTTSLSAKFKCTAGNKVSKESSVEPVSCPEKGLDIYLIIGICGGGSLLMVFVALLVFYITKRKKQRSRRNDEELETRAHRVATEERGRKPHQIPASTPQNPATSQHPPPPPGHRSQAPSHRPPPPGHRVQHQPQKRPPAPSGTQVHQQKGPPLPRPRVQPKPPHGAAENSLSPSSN

Row | Substance | IC50 (read off the curve) [1] | % Efficacy, primary human T cell killing assay [2] | IC50 (pM), primary human T cell killing assay (5 days, flow cytometry) [2]
1 | CD2 RPA naked (antibody) | 0.08 nM | – | –
2 | CD2 RPA2.10 D265C/H435A ADC A (antibody) | 0.1 nM | 85.7% | 54 pM
